Results reported in patent publication EP0528271A1.

What follows are substances tested against human PTH receptor on mouse cranial bone-derived osteoblast-like cell strain MC3T3-EI (mouse cell strain (receptor given as 'human PTH receptor')) (UniProt P41593) (assay: cell-based or functional assay).
Chain of UniProt P41593 (P41593 27-591): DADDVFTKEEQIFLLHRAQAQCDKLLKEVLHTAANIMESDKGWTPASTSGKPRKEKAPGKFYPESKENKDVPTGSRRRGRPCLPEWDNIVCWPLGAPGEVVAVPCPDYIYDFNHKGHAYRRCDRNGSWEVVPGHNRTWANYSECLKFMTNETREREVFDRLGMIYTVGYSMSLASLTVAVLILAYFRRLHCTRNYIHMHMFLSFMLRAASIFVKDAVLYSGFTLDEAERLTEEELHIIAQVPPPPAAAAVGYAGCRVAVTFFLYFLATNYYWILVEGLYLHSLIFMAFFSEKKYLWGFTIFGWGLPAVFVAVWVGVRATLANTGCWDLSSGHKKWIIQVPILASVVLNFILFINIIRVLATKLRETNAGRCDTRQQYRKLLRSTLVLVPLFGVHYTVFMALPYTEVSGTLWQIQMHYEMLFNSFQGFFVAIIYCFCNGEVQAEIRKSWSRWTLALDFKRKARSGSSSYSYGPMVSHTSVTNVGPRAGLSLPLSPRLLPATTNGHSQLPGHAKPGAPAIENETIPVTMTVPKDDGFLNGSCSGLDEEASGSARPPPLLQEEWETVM

| Substance | Specific Activity (cAMP production in MC3T3-EI cells) (relative to natural type human PTH) |
| --- | --- |
| [Leu⁸] human PTH (1-84) (ligand) | 1 |
| [Cys³⁵] human PTH (1-84) (ligand) | 0.6 |

Further lines, results first:

| Specific Activity (cAMP production in MC3T3-EI cells) (relative to natural type human PTH) | Substance |
| --- | --- |
| 0.3 | [Leu^8,18] human PTH (1-84) (ligand) |
| 1 | Human PTH (1-84) (ligand) |
| 0.2 | [Leu⁸] human PTH (second row with this label in the specific activity table; identity uncertain) (ligand) |
